Measurements published in US20110250211A1 (INSTITUT PASTEUR, published 2011).
Changes are numbered by the printed parent chain.

Assays:
[1] = molecular target: T1, human glial fibrillary acidic protein (GFAP) (human, UniProt P14136 1-432); assay: equilibrium competition ELISA in solution (Friguet et al.)
T1 construct: the endogenous protein in fixed human brain sections in the immunolabelling experiments; also called hGFAP
Experimental: (§1) The binding affinity of VHHs was determined as described by FRIGUET et al. (1985, J Immunol Methods, 77:305-319). Briefly, various concentrations of GFAP were incubated in solution overnight at 4° C. with a known quantity of VHH until equilibrium was reached. The VHH concentration had been determined by preliminary ELISA calibrations. 100 μl of solution was transferred to a well of a microtiter plate previously coated with GFAP and was incubated for 20 min at 4° C. The plates were washed with PBS-Tween 0.1%. VHHs were detected with rabbit anti-His tag antibodies (eBiosciences, San Diego, Calif.) followed by adding β-galactosidase-conjugated goat anti-rabbit Igs (Biosys, Compiegne, France) and 4-methylumbelliferyl β-D galactoside (Sigma Aldrich, Saint-Quentin Fallavier, France). Fluorescence was read at 460 nm, after excitation at 355 nm. KD was estimated from the slope of the regression curve obtained by plotting the reciprocal of the fraction of bound antibody versus the reciprocal of the molar concentration of antigen.

[2] = molecular target: T2, murine glial fibrillary acidic protein (GFAP) (mouse, UniProt P03995 1-430); assay: Western blot of murine brain extracts
T2 construct: Endogenous protein of brain extracts, brain sections or live brain; also called GFAP in murine brain extracts; GFAP in mouse astrocytes
T2 sequence (P03995 whole entry): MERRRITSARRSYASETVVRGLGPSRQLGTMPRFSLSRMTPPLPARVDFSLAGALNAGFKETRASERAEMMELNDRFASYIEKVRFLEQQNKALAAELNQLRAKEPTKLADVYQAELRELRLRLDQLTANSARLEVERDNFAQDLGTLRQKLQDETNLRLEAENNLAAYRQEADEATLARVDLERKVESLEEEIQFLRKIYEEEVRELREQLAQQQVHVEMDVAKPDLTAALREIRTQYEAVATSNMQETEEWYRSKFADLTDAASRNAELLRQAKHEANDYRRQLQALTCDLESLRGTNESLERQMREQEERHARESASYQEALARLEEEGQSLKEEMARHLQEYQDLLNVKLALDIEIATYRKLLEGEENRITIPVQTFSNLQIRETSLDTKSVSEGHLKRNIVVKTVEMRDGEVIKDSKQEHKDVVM
Experimental: Murine brain extracts were electrophoresed, immunoblotted and incubated with the VHH domains VHH-A10, -B8, -E3 and -E9.
Murine brain proteins (300 mg) were extracted in a potter with 600 μl of NuPage LDS sample buffer (Invitrogen) and kept for […] at 70° C. An aliquot was diluted 1:10 (v/v) with the same sample buffer then treated at 70° C. for 10 min. Following separation by polyacrylamide gel electrophoresis (PAGE) using NuPAGE Novex 4-12% Bis-tris gel (Invitrogen), semi-dry transfer onto Hybond-C (Amersham) and western blotting were carried out using the Xcell II blot module (Invitrogen). Prior to the immunochemical reaction, membranes were blocked in a 4% skimmed milk solution. […] Finally, peroxidase activity was visualized using a chemiluminescent kit (Amersham).

[3] = molecular target: T1, human glial fibrillary acidic protein …; assay: immunohistochemistry on human brain paraffin sections
Experimental: Immunostaining of human brain tissue was performed on 5 μm thick paraffin sections. Sections were de-paraffinized in xylene, rehydrated through ethanol (100%, 96%, and 90%) and finally brought to water. They were incubated with 3% hydrogen peroxyde and 20% methanol, to quench for endogenous peroxydases, and washed in water. Non-specific binding was blocked by incubating the sections for 10 minutes in 2% bovine serum albumin in TBS plus 0.5% Tween.
The distribution of VHH-specific immunoreactivity in mouse and human brains sections were examined after aldehyde fixation and membranes permeabilization, using standard procedure for immunostaining. Immunohistochemistry experiments were performed with VHH-A10 (SEQ ID NO: 5) or VHH domain of SEQ ID NO: 3 fused in frame with the Ig CH2 domain and the His tag (SEQ ID NO: 29) were both used. With this construction, the signal could be amplified by using rabbit anti-alpaca Ig polyclonal antibodies as secondary antibodies, in turn labelled by an anti-rabbit goat polyclonal antibody. As previously reported (LAFAYE et al, 1995, above-cited), the results obtained were similar with the His-tagged antibody.

[4] = molecular target: T2, murine glial fibrillary acidic protein …; assay: immunohistochemistry on fixed, permeabilized brain sections
[5] = molecular target: T1, human glial fibrillary acidic protein …; assay: competition ELISA (Friguet) after heating 15 min at 75 C and cooling 20 min at 4 C
Experimental: as §1
The heat denaturation of VHH-E9 was adapted to the method described in OLICHON et al. (2007, BMC Biotechnol., 7:7). VHHs are re-suspended in PBS/NaCl 300 mM and are heated for 15 minutes at 75° C. then cooled down at 4° C. for 20 minutes. The binding affinity of VHHs was determined by ELISA as described in Example 1 above.

[6] = molecular target: T1, human glial fibrillary acidic protein …; assay: equilibrium competition ELISA in solution (Friguet et al.), GFAP-coated plate
Experimental: as §1

[7] = molecular target: T1, human glial fibrillary acidic protein …; assay: competition ELISA (Friguet) as in Example 1
Experimental: as §1

T1 sequence (P14136 whole entry): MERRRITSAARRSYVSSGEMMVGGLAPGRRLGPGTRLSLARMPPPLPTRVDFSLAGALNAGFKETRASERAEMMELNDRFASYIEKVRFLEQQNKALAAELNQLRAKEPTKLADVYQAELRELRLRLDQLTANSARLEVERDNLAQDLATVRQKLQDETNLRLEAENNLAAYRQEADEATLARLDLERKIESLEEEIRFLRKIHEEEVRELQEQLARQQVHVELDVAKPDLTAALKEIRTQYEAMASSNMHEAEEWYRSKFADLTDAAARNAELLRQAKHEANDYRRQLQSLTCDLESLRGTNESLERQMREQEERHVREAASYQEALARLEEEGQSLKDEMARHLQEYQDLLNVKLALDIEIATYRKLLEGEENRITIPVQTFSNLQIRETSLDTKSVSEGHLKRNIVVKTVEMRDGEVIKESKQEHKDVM

B1: VHH-B8 (VHH)
VHH: DVQLQVSGGGSVQPGGSLRLSCAAPGFTFSNYAMYWLRQAPGKGIEWVSRIGPGGSHTEYADSVKGRFAISRDNAKNTLSLQMNSLKPEDTAAYYCAITQQGSGRGRGTQVTVSSAAASLSTELEFGSELIPISMADVQLQVSGGGSVQPGGSLRLSCAASGFTFSNYAMYWLRQAPGKGIEWVSRIGPGGSHTEYADSVKGRFTISRDNAKNTLSLQMNSLKPEDTAVYYCAITQQGSGRGRGTQVTVSSAAALEHHHHHH
notes: One polypeptide entry
With B1 the Kd [1] was 5.2 nM and the binding result [2] was “binds”.

B2: VHH domain of SEQ ID NO: 3 fused in frame with the Ig CH2 domain and the His tag (VHH)
chain: DVQLRASGGGLVQPGGSLRLSCAASGFTFSNYAMYWLRQAPGKGIEWVSRIGPGGSHTEYADSVKGRFTISRDNAKNTLSLQMNSLKPEDTAVYYCAITQQGSGRGQETQVTVSSAAAAPELLGGPSVFIFPPKPKDVLSISGRPEVTCVVVDVGQEDPEVSFNWYIDGAEVRTANTRPKEEQFNSTYRVVSVLPIQHQDWLTGKEFKCKVNNKALPAPIEKTISKAKLEHHHHHH
notes: the sentence could be read otherwise; also called VHH-A10 fused with the CH2 domain
B2: binds [3]; binds [4].

B3: VHH-E9 (VHH)
VHH: DVQLQVSGGGSVQPGGSLRLSCAASGFTFSNYAMYWLRQAPGKGIEWVSRIGPGGSHTEYADSVKGRFTISRDNAKNTLSLQMNSLKPEDTAVYYCAITQQGSGRGQGTQVTVSS
notes: Alpaca VHH with C-terminal His tag; also called anti-GFAP VHH-E9; native VHH-E9
For B3, the Kd [5] was 3.8 nM, the Kd [6] was 5.6 nM and the binding result [2] was “binds”.

B4: VHH-A10 (VHH)
VHH: DVQLRASGGGLVQPGGSLRLSCAASGFTFSNYAMYWLRQAPGKGIEWVSRIGPGGSHTEYADSVKGRFTISRDNAKNTLSLQMNSLKPEDTAVYYCAITQQGSGRGQETQVTVSSAAALEHHHHHH
notes: Alpaca VHH with C-terminal His tag, expressed in the E. coli periplasm from pET22; also called anti-GFAP VHH-A10; VHH-His
With B4 the Kd [6] was 3.1 nM and the binding result [2] was “binds”.

B5: VHH-E9 SS-free (VHH)
VHH: B4 VHH with R5Q, A6V, L11S, C22S, C96S, E108G
notes: also called cysteine-free derivative of VHH E9
With B5 the Kd [7] was 12 nM and the “fold reduction of affinity against native VHH-E9” value [7] was 2 fold.

B6: VHH-E3 (VHH)
VHH: B3 VHH with S25P, T69A, V93A, Q107R
notes: Alpaca VHH with C-terminal His tag; also called anti-GFAP VHH-E3
B6: binds [2].
